In publication PMC12148588 (eBioMedicine, 2025) one finds Kd data, which are given here for one molecule.

In the test the target is T1, SARS-CoV-2 RBD of the VOC Delta (Acro Biosystems SPD-C82Ed-25) (SARS-CoV-2, VOC Delta (B.1.617.2), strain).
T1 construct: source: bought: Acro Biosystems
Description: SPR; Biacore 8K+, […]; 10 mM HEPES pH 7.4, 150 mM NaCl, 3 mM EDTA, 0.05% Tween 20; […]. As to conditions: both partners purified. In general terms: SPR reads the build-up and loss of mass on a sensor chip optically.

B1: MB025_A09Lgl (antibody, V domains shown)
VH: EVQLVESGGGLVQPGGSLRLSCAASGFTVSSNYMSWVRQAPGKGLEWVSVIYSGGSTYYADSVKGRFTISRHNSKNTLYLQMNSLRAEDTAVYYCARGVDYRTNRTEGGAFDIWGQGTMVTVSS
VL: QSALTQPASVSGSPGQSITISCTGTSSDVGSYNLVSWYQQHPGKAPKLMIYEGSKRPSGVSNRFSGSKSGNTASLTISGLQAEDEADYYCCSYAGSSTWMFGGGTKLTVL
By Kd is commonly meant the free concentration of one partner at which half of the binding sites on the other are occupied at equilibrium, for simple one-to-one binding. With B1, the Kd worked out at 0.731 µM. This counts as sub-micromolar.
